Laboratory results as given in patent US20040131615A1, “Methods for treating pain by administering a nerve growth factor antagonist and an opioid analgesic and compositions containing the same” (priority 2002, published 2004).

Target: human NGF (Homo sapiens, UniProt P01138)
Test: binding affinity; method not given

Chain of human NGF (P01138 122-241 limits assumed): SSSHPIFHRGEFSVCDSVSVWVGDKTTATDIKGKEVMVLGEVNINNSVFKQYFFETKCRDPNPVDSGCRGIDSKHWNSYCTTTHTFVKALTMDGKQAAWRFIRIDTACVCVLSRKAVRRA

Kd: 0.07 nM
B1: humanized anti-NGF antibody E3 (antibody, V domains shown)
VH: VQLQESGPGLVKLPSETLSLTCTVSGFSLIGYDLNWIRQPPGKGLEWIGIIWGDGTTDYNSAVKSRVTISKDTSKNQFSLKLSSVTAADTAVYYCARGGYWYATSYYFDYWGQGTLVTVS
VL: DIQMTQSPSSLSASVGDRVTITCRASQSISNNLNWYQQKPGKAPKLLIYYTSRFHSGVPSRFSGSGSGTDFTFTISSLQPEDIATYYCQQEHTLPYTFGQGTKLEIK
